This data set can be described thus: label from the status in PepcDB records.
With “MGVSPQVARWFDCDLRSVVDHGVDRLRFTWKLGDPVEAELPSEEPFWMVRRDRFDHFLVEQAANLGARIEDGAAVTAVSAEGDGWLVTVGDRAYRSRTLIAADGARGPLAQWLGFPSQKRRYAQACELDVPLPARPDSTAHFEFGLVRNGYIWVFPKSDGYSIGIGTFRGNDATDFRGLLETYLAGFGVSADLDRIVPHPLCVWDGSQPLHRGSALLVGEAASLTDPFTAEGIRPALLSGMRAAEAIDRAIAGDRNALAGYSRTIQQEWGDSMAWAKRISSVFYRVPNLGYQIGIKRPTAPQRMAQILVGELDYSDIATRVIRRLTTGFLPGMRLEHHHHHH”, the protein production result is listed as “failed”.

In the case of “MTHTRRALSTVGKGLAALRHLLPLLLCLLVLAGCAKAPYTGRSQFIMVSPQQEMALGQQESRKILSKEPVKTGTDEAQRVETVGRRIAAAARRGDFRWEFHLIGKDVANAFCLPGGKVFVYEGIFKYADTDAELATVMAHEVGHAIARHGAERMSRAMMVQMGHDAAAIALGVAGGSPAAVQAFSQAYGTGANVGLMLPFGREQEYEADRIGLMLMAQAGYDPRAALDFWRKMSSAPGKRPPEFLSTHPTGQHRIAELQARMGDALRVYRPPSGK”, the protein production entry is “failed”. For “MAAPVVVAPAINLQHMDLPEGNEDVAAVLQTSTQRWLNAAEWSILYNNHNLFPESNSFTIPIEVEGLYRVDNRFNQDSNTWRNTSAPSTCKNAINFYNVRIATGLYRFDDDGDIVMDAEVQGGWVLCRKTVRNRGGGVLTFAHYMWVLV”, the protein production result is listed as “failed”. Turning to “MEGCVSNIMICNLAYSGKLDELKERILADKSLATRTDQDSRTALHWACSAGHTEIVEFLLQLGVPVNDKDDAGWSPLHIAASAGRDEIVKALLVKGAHVNAVNQNGCTPLHYAASKNRHEIAVMLLEGGANPDAKDHYDATAMHRAAAKGNLKMVHILLFYKASTNIQDTEGNTPLHLACDEERVEEAKFLVTQGASIYIENKEEKTPLQVAKGGLGLILKRLAEGEEASM”, the protein production entry is recorded as “not failed”.

For the sequence “MLKQEKIYLVEDDTTIVNLLKNHLGQHYQVKSVDNFRAILQEVKEFKPDLILMDITLPYFNGFYWTTEIRKSMTMPIIFISSADEEMNAVMAMNMGGDDFLSKPFSLPILDAKIAAFLRRANEFTKQGHQIEEFELTLDGVFSNLERQETIQLTPTETKILSLLIDYKGEVVTKEALLNRLWEGEEFIDQNTLSVNMTRLRKKVLSVSFDKIHTVRGVGYLIK”, the protein production entry is on record as “failed”. Turning to “MSSLLYARVRANARFQQLVARRNRFTLSLFVLILATFYGYIGLVSFWPELIARRLAQGSNMTVGVAAGAFLFVFFCALSAFYVYRANGEFDSLTQALLSGLEEEQGA”, the protein production result is “failed”. As to “MATHNIHMDCAVNPSVRWRSRPVSTQVPRTRRFAAVVGPIAFSTLGIVLSLFAAVAVDAQPRTPGRVAAVFPPWWDDARVVASAGTAGDIAGAGGASFIVILRGDPATLNQRARTAGAWLLLDPALAGACARPASEPVSS”, the protein production entry is recorded as “failed”. In the case of “MSDQDVNPEHISDAQPAGTGLVLPGQTLPTTLYVIPIHNRPFFPAQVLPVIVNEEPWAETLELVAKTDHHSLALFFMDNPPEDPRHFDVNSLPEHGTLVRVHHASREGGKLQFVAQGLSRVRIRGWIKRHRPPFMVEVDYPKTPIDPSDEVKAYGMALINAIKELLPLNPLYSEELKNYLNRFSPNDPSPLTDFAAALTTAPGGELQEVLDTVPILKRMEKVLPLLRKEVEVARLQKELSAEVNRKIGEHQREFFLKEQLKIIQQELGITKDDKSADADEFRARLEGKVLPEQARKRIDEELNKLSILESGSPEYAVTRNYLDWATALPWGVYGKDKLDLKHARKVLDKHHAGLDDIKDRILEFLAVGSFKGEIAGSIVLLVGPPGVGKTSIGKSIAESLGRPFYRFSVGGMRDEAEIKGHRRTYIGALPGKLVQALKEVEVMNPVIMLDEIDKLGASYQGDPASALLETLDPEQNVEFLDHYLDLRLDLSKVLFVCTANTLDSIPGPLLDRMEVIRLSGYISEEKLAIAKRHLWPKQLEKAGVPKGRLSISDAALRAVIEGYAREAGVRQLEKQLGKLVRKSVVKLLEDPESKVKIGPRDLEDYLGMPVFRSEQVLSGIGVITGLAWTSMGGATLPIEATRIHTLNRGFKLTGQLGDVMKESAEIAYSYIGSHLKKYGGDPTFFDQAFVHLHVPEGATPKDGPSAGVTMASALLSLARNQVPKKGVAMTGELTLTGQVLPIGGVREKVIAARRQKIFELILPEANRGHFEELPDYLREGLTVHFAKRYGDVAKVLF”, the protein production result is on record as “failed”.

The values are drawn from a protein production outcome set (Wang et al. 2014).
